Source: patent publication US20200283521A1 (GRANULAR THERAPEUTICS, published 2020)

What was measured:
Assay in all cases: direct ELISA on coated protein, IgG1
hOX40-Fc = target: T1, hOX40-Fc
T1 construct: member of the panel m9
T1 chain: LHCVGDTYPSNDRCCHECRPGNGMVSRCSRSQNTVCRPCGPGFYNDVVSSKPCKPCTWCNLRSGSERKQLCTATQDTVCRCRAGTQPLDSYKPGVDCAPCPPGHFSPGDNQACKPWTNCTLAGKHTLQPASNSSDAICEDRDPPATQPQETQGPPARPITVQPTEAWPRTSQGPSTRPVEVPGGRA

h4-1BB-Fc = target: T2, h4-1BB-Fc
T2 construct: member of the panel m9

hVCAM-Fc = target: T3, hVCAM-Fc
T3 construct: member of the panel m9
T3 chain: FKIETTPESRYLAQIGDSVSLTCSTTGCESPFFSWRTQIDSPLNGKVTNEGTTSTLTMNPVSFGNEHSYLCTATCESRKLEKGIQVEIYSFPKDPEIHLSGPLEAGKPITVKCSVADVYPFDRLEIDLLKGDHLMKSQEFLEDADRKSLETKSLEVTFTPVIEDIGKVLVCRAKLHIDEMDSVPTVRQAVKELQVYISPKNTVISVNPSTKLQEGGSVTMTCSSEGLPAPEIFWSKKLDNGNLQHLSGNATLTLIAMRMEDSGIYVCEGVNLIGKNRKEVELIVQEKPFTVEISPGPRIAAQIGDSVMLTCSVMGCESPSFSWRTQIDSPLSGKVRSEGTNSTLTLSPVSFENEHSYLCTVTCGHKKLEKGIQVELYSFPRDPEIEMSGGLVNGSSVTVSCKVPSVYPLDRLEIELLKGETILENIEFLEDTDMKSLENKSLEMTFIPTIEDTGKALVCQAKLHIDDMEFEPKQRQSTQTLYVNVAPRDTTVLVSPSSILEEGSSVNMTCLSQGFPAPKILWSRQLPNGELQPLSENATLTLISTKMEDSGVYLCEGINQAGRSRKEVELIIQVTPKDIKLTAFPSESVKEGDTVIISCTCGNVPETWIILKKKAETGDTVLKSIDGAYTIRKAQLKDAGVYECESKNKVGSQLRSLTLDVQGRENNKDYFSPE

hCD4 = target: T4, hCD4 (human, UniProt P01730)
T4 construct: purified recombinant protein; member of the panel m9

hDR6-Fc = target: T5, hDR6-Fc (human, UniProt O75509)
T5 construct: Fc fusion; member of the panel m9
T5 sequence (looked up): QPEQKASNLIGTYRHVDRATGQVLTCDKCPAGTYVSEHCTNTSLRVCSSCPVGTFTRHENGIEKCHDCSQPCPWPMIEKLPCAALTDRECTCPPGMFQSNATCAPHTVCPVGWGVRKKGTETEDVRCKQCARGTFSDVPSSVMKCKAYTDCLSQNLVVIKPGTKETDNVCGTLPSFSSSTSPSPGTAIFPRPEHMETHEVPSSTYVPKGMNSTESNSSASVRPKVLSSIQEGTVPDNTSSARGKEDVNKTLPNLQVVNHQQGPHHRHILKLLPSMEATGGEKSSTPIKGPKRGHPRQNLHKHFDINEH

hCMET-Fc = target: T6, hCMET-Fc (The natural ectodomain is cleaved by furin after residue 307 into disulfide-linked alpha and beta chains. It is given here as one continuous stretch.)
T6 construct: member of the panel m9
T6 chain: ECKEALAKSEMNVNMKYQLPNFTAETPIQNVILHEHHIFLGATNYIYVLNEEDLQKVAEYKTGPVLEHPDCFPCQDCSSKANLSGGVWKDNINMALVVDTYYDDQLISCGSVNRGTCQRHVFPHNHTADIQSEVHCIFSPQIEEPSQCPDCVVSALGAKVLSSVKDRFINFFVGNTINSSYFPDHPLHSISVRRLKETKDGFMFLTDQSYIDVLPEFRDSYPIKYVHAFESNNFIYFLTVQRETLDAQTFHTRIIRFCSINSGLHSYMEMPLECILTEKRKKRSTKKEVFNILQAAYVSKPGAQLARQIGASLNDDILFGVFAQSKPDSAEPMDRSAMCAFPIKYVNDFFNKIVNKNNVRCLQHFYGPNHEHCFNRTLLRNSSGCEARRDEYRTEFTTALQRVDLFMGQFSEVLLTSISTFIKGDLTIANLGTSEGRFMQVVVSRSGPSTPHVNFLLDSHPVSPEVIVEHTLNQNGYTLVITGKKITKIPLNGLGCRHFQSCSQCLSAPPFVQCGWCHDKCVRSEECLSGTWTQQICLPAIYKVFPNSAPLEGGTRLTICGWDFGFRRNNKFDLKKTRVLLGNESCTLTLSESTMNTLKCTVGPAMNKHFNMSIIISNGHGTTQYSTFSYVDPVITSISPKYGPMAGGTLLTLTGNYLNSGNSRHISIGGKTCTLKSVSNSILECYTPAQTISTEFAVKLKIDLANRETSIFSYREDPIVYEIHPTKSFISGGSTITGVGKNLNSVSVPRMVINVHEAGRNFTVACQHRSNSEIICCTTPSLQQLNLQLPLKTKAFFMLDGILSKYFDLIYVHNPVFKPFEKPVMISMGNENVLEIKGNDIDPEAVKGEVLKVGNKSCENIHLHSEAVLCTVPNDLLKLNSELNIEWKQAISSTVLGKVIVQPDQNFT

hTWEAK-Fc = target: T7, hTWEAK-Fc (human, UniProt O43508)
T7 construct: Fc fusion; member of the panel m9
T7 sequence (looked up): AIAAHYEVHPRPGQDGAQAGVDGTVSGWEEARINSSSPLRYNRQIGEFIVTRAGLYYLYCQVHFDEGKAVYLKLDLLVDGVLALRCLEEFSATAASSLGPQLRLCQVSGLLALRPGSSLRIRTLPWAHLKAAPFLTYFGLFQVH

hBAFFR-Fc = target: T8, hBAFFR-Fc (human, UniProt Q96RJ3)
T8 construct: Fc fusion; member of the panel m9
T8 sequence (Q96RJ3 7-71 limits assumed): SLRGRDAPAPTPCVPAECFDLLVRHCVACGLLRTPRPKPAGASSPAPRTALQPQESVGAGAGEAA

hICAM-1-Fc = target: T9, hICAM-1-Fc (human, UniProt P05362)
T9 construct: Fc fusion; member of the panel m9
T9 sequence (P05362 28-480 limits assumed): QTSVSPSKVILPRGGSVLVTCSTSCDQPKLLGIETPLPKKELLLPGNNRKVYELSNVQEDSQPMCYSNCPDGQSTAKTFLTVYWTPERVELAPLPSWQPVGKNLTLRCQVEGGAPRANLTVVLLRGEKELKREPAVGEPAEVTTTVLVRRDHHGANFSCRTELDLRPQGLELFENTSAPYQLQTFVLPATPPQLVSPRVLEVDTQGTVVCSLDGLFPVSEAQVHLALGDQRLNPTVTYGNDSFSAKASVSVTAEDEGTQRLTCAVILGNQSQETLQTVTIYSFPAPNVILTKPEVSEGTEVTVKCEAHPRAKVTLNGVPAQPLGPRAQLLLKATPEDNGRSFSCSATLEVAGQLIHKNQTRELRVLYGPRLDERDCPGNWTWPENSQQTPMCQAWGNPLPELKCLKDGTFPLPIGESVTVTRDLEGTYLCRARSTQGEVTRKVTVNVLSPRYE

hVCAM-1 = target: T10, hVCAM-1 (human, UniProt P19320)
T10 construct: purified recombinant protein; member of the panel m9
T10 sequence (looked up): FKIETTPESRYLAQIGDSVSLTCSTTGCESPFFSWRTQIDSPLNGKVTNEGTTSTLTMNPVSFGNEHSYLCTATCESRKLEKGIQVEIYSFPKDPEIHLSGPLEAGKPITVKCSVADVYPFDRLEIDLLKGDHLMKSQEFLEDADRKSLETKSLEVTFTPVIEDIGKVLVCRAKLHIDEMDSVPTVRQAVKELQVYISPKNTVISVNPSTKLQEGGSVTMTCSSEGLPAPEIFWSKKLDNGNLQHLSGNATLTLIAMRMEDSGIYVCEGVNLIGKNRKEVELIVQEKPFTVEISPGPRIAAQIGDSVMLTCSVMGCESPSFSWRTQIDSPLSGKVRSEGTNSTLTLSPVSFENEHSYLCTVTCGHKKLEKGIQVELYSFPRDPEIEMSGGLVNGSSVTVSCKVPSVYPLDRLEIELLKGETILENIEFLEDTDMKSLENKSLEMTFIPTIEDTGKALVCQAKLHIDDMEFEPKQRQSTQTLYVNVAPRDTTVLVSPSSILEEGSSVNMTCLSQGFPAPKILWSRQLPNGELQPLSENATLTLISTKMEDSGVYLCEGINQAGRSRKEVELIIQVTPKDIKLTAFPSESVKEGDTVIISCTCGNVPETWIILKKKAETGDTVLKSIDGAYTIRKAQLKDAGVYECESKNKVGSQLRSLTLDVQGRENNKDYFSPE

T2 sequence (chain, as listed by the source limits assumed): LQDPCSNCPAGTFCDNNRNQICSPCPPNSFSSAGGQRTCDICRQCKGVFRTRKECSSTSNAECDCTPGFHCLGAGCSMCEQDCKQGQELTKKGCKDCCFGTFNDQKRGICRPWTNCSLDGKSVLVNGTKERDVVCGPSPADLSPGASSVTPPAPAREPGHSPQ

binding result (hOX40-Fc): no binding (tested: 1 µg/ml)
binding result (h4-1BB-Fc): no binding (tested: 1 µg/ml)
binding result (hVCAM-Fc): no binding (tested: 1 µg/ml)
binding result (hCD4): no binding (tested: 1 µg/ml)
binding result (hDR6-Fc): no binding (tested: 1 µg/ml)
binding result (hCMET-Fc): no binding (tested: 1 µg/ml)
binding result (hTWEAK-Fc): no binding (tested: 1 µg/ml)
binding result (hBAFFR-Fc): no binding (tested: 1 µg/ml)
binding result (hICAM-1-Fc): no binding (tested: 1 µg/ml)
binding result (hVCAM-1): no binding (tested: 1 µg/ml)
B1: MH1, human IgG1 (antibody, V domains shown)
VH: QVQLVQSGAEVKKPGASVKVSCKASGYTFTDYYMNWVRQAPGQGLEWMGRIYPGSGNTYYAQKFQGRVTMTRDTSTSTVYMELSSLRSEDTAVYYCARGVYYYDYWGQGTLVTVSS
VL: DIQMTQSPSSLSASVGDRVTITCRASQGIRTNLAWFQQKPGKAPKSLIYAASSLQSGVPSRFSGSGSGTDFTLTISSLQPEDFATYYCQQYNSYPRTFGGGTKVEIK
notes: IgG1; also called IgG1-MH1
